{"source": "paper PMC12027964", "about": "“Centrifugation-Based Purification Protocol Optimization Enhances Structural Preservation of Nucleopolyhedrovirus Budded Virion Envelopes” (Insects, 2025)", "proteins": {"B1": {"name": "GP64 envelope fusion protein of Autographa californica multiple nucleopolyhedrovirus (AcMNPV) (natural protein)", "chain": "AEHCNAQMKTGPYKIKNLDITPPKETLQKDVEITIVETDYNENVIIGYKGYYQAYAYNGGSLDPNTRVEETMKTLNVGKEDLLMWSIRQQCEVGEELIDRWGSDSDDCFRDNEGRGQWVKGKELVKRQNNNHFAHHTCNKSWRCGISTSKMYSRLECQDDTDECQVYILDAEGNPINVTVDTVLHRDGVSMILKQKSTFTTRQIKAACLLIKDDKNNPESVTREHCLIDNDIYDLSKNTWNCKFNRCIKRKVEHRVKKRPPTWRHNVRAKYTEGDTATKGDLMHIQEELMYENDLLKMNIELMHAHINKLNNMLHDLIVSVAKVDERLIGNLMNNSVSSTFLSDDTFLLMPCTNPPAHTSNCYNNSIYKEGRWVANTDSSQCIDFSNYKELAIDDDVEFWIPTIGNTTYHDSWKDASGWSFIAQQKSNLITTMENTKFGGVGTSLSDITSMAEGELAAKLTSFMFGHVVNFVIILIVILFLYCMIRNRNRQY", "notes": "Native viral protein, no tag; also called prefusion GP64; Frac B; source: purified from recombinant AcMNPV budded virions produced in Sf9 cells (1% DDM / 0.1% CHS extraction, Superdex 200 SEC)"}}, "target": "the molecule itself", "test": "cryo-EM structure; GP64 solubilised from purified BV particles with DDM/CHS, SEC fraction B in TN buffer (50 mM Tris-HCl pH 8, 150 mM NaCl) with 0.02% DDM and 0.002% CHS, about 1 mg/mL; single-particle reconstruction (7913 particles, 15 Å); prefusion GP64 model PDB 8YG6 fitted into the map"}
{"protein": "B1", "values": [{"measurement": "stoichiometry N", "value": 3}]}
